Measured values from patent US20130115220A1, “METHOD FOR PREVENTION OR TREATMENT OF METABOLIC SYNDROME” (DAINIPPON SUMITOMO PHARMA CO., LTD., priority 2010, published 2013).

Columns and labels:
[1] = test system: 3T3-L1 preadipocytes; test: Differentiation of 3T3-L1 preadipocytes into mature adipocytes, lipid droplet formation by oil-red-O; type: cell-based
Description: To examine the function of AIM produced by macrophage that infiltrated into adipose tissue on the surrounding adipocytes, an experiment was performed to load AIM in the culture process for differentiation of 3T3-L1 preadipocytes into mature adipocytes.
As AIM, recombinant AIM protein (rAIM) of mouse was used. rAIM was prepared by culturing human-derived HEK293T cells transfected with a vector expressing mouse AIM (pCAGGS-mAIM-HA plasmid) in a serum-free medium (FreeStyle™ 293 Expression Medium; Invitrogen). rAIM was purified from the culture supernatant thereof using an anti-HA antibody column. In other Reference Examples shown below, AIM used was a similar rAIM protein. AIM was loaded by adding AIM to a culture medium at a concentration of 5 μg/ml.
In addition, differentiation of 3T3-L1 cells was induced as shown in FIG. 13 by first proliferating 3T3-L1 cells by cultivating for 4 days (day(−2)-day 2), after which cultivating in a culture medium containing insulin, dexamethasone (DEX) and isobutylmethylxanthine (IBMX) for 2 days (day 2-day 4) to start differentiation induction stimulation, and further cultivating in a culture medium containing insulin for 2 days (day 4-day 6).
After the differentiation induction stimulation period (day 2-day 6), the cells were continuously cultured in a culture medium free of such differentiation induction stimulation factors. Then, the cells on day 10 day from the start of the differentiation induction stimulation (day 12) were stained with oil-red-O, and the state of differentiation of 3T3-L1 cells into mature adipocytes was observed.

[2] = test system: 3T3-L1 cells; test: rAIM uptake into 3T3-L1 cells by staining; type: cell-based, mouse
Description: Differentiated 3T3-L1 cells (ins/DEX/IBMX stimulation (+)) and undifferentiated 3T3-L1 cells (ins/DEX/IBMX stimulation (−)) were incubated with rAIM (5 μg/ml) for 3 hr, and stained with AIM, PPARγ2, and DAPI. For staining with PPARγ2, a rabbit anti-PPARγ2 polyclonal antibody (Abcam plc) was used.
In addition, 3T3-L1 adipocytes were treated with rAIM for 3 hr, stained with AIM and endosome (FM 1-43FX (Invitrogen Corporation) was used), AIM and lysosome (Lyso Tracker Red DND-99 (Invitrogen Corporation) was used), and observed under a confocal microscope.

[3] = test system: CD36-/- mice; test: rAIM uptake into adipose tissue of CD36+/+ and CD36-/- mice; type: in vivo; settings: rAIM intravenous 300 μg/mouse, 16 hr
Description: Then, CD36^+/+ mice (wild-type) and CD36^−/− mice (Febbraio et al., J. Biol. Chem., 1999, 274:19055-19062) were intravenously injected with rAIM (300 μg/mouse in PBS), sacrificed 16 hr later, and a section was prepared from adipose tissue. AIM and macrophage F4/80 in the section were stained.

[4] = test system: AIM-/- mice; test: Body weight and fat amount of HFD-fed AIM-/- mice; type: in vivo; settings: AIM-/- mice on HFD, intraperitoneal 300 μg/injection/mouse twice a week, 5 weeks, versus BSA
Description: Then, rAIM was intraperitoneally administered twice a week (n=6; 300 μg/injection/mouse) to AIM^−/− mice for 5 weeks while feeding with HFD, and the body weight and adipose tissue amount were measured.

[5] = molecular target: T1, FAS (Mus musculus, UniProt P19096); test: Co-immunoprecipitation of rAIM-HA and endogenous FAS in adipose tissue; type: binding; design: endogenous; settings: adipose tissue of AIM-/- mice, 100 μg injected, 3 hr
Description: rAIM labeled with HA-tag was directly injected to adipose tissue of AIM^−/− mice (at several points, 100 μg in total). After 3 hr, to confirm binding of rAIM-HA and endogenous FAS, co-immunoprecipitation by anti-HA antibody was performed using adipose tissue. The presence of FAS in the precipitate was analyzed by Western blotting (WB).

[6] = molecular target: T1, FAS; test: Co-immunoprecipitation of AIM-HA and FLAG-FAS or FAS domains in HEK 293T cells; type: binding; design: expressed in transfected cells; host or cells: HEK 293T cells co-expressing AIM-HA; settings: HEK 293T cells co-expressing HA-tag rAIM and FLAG-tag FAS
Text: In HEK 293T cells, rAIM labeled with HA-tag and FAS labeled with FLAG-tag were co-expressed, and the binding of AIM and FAS was confirmed by co-immunoprecipitation using an anti-Flag antibody or anti-HA antibody.
Then, the AIM binding region in FAS was examined. FAS contains 8 domains of keto acyl synthase (KS), malonyl/acetyl transferase (MAT), dehydrase (DH), central core (CC), enoylreductase (ER), keto reductase (KR), acylcarrier protein (ACP) and thioesterase (TE).
The N-terminal of each domain of FAS was labeled with Flag sequence, and expressed in HEK293T cells where AIM-HA is stably expressed. The binding of AIM-HA and each domain of FAS was confirmed by co-immunoprecipitation using an anti-Flag antibody or anti-HA antibody.
The sequence encoding full-length FAS cDNA (nucleotide: +1-7515) labeled with FLAG-tag was constructed using a part of the cDNA clone provided by Dr. Ohara (Kazusa DNA Research Institute) and some fragments cloned by RT-PCR and pFLAG-CMV2 vector (Sigma).
A cDNA fragment encoding KS, MAT, DH, CC, ER, KR, ACP or TE was prepared by subcloning to pFLAG-CMV2 vector by using full-length FAS cDNA as a template.

T1 sequence (P19096 whole entry): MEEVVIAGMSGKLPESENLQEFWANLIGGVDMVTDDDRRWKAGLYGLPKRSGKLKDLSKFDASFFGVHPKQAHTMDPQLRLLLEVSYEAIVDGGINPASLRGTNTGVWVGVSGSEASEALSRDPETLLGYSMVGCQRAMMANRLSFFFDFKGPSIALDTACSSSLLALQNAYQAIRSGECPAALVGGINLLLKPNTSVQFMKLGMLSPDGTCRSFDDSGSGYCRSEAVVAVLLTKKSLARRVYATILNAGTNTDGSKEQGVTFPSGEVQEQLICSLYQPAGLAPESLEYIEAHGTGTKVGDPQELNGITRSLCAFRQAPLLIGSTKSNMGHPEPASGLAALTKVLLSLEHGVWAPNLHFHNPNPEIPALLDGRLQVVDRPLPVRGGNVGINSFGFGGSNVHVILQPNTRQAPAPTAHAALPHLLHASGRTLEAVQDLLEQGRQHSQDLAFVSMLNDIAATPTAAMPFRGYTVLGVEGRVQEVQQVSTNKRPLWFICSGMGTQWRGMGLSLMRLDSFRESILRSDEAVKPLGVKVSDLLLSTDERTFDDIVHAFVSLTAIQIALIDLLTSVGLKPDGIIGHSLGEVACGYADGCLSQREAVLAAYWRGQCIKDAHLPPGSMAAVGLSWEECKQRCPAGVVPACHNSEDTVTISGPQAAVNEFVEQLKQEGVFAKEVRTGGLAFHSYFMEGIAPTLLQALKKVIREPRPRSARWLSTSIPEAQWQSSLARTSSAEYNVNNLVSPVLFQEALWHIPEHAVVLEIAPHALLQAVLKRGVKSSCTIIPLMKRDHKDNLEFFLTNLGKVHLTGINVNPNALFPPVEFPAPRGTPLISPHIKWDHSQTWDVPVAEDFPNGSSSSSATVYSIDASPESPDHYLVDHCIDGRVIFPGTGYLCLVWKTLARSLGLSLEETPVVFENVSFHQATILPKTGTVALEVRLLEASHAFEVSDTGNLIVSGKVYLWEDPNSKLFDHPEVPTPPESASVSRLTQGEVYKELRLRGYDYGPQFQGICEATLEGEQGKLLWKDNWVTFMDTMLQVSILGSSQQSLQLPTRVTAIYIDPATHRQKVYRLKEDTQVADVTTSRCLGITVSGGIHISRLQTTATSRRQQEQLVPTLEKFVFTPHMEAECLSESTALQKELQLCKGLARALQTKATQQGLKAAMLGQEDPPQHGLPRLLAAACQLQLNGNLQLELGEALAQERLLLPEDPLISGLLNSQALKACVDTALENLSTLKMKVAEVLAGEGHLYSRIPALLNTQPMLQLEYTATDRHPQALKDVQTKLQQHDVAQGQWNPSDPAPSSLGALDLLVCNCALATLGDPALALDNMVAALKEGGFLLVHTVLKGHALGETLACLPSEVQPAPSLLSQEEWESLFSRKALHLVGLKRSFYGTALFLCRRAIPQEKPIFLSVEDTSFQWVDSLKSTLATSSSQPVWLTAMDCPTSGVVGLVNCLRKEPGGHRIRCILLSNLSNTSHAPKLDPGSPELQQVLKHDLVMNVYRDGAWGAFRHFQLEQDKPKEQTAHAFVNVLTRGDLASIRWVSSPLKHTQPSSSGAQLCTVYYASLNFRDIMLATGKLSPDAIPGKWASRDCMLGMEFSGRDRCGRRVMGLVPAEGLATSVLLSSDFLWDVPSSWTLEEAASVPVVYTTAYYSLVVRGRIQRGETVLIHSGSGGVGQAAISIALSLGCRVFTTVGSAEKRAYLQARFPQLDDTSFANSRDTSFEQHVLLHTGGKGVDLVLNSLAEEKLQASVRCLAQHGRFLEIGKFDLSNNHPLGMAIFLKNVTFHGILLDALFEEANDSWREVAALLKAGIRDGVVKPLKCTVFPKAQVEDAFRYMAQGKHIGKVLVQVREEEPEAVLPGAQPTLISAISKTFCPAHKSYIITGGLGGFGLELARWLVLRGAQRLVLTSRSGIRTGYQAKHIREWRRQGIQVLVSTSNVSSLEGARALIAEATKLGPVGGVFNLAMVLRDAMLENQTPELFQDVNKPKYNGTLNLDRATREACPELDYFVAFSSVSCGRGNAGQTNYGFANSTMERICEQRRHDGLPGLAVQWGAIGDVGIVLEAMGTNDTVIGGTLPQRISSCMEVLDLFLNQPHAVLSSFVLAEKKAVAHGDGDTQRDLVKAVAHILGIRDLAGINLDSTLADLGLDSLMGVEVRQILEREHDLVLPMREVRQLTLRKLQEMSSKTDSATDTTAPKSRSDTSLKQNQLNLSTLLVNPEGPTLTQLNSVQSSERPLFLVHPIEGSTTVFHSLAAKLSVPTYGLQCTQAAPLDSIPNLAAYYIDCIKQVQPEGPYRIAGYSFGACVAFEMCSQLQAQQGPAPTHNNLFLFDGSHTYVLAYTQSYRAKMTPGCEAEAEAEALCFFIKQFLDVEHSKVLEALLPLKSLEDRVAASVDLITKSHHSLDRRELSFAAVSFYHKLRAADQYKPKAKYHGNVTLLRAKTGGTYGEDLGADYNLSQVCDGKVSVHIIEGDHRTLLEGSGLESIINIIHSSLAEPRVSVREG

B1: rAIM: recombinant AIM protein (rAIM) of mouse, HA-tagged, prepared in HEK293T cells (protein)
chain: ESPTKVQLVGGAHRCEGRVEVEHNGQWGTVCDDGWDRRDVAVVCRELNCGAVIQTPRGASYQPPASEQRVLIQGVDCNGTEDTLAQCELNYYVFDCSHEEDAGAQCENPDSDLLFIPEDVRLVDGPGHCQGRVEVLHQSQWSTVCKAGWNLQVSKVVCRQLGCGRALLTYGSCNKNTQGKGPIWMGKMSCSGQEANLRSCLLSRLENNCTHGEDTWMECEDPFELKLVGGDTPCSGRLEVLHKGSWGSVCDDNWGEKEDQVVCKQLGCGKSLHPSPKTRKIYGPGAGRIWLDDVNCSGKEQSLEFCRHRLWGYHDCTHKEDVEVICTDFDV
modifications: left off: small tags and cut ends
notes: recombinant AIM protein (rAIM) of mouse, HA-tagged, prepared in HEK293T cells
In the case of B1, the differentiation suppressive effect ([1]; AIM concentration decreased to 1 μg/ml and 0.1 μg/ml) is reported as “decreased”, the “differentiation of 3T3-L1 cells into adipocytes” value ([1]; AIM continuously loaded day(-2)-day 12) is reported as “completely suppressed” and the “number of dead cells” value ([1]; AIM loading on 3T3-L1 cells) is reported as “did not increase”. For the same molecule, the “differentiation of 3T3-L1 cells (cells having lipid droplet, oil-red-O, day 12)” value ([1]; schedule B, AIM 5 μg/ml loaded day 2-day 12) was “nearly completely suppressed”, the “differentiation of 3T3-L1 cells (cells having lipid droplet, oil-red-O, day 12)” value ([1]; schedule C, AIM 5 μg/ml loaded only day 2-day 4) was “nearly completely suppressed” and the “differentiation of 3T3-L1 cells into mature adipocytes” value ([1]; schedule D, AIM loaded only before differentiation induction, day(-2)-day 2) was “not suppressed”. For the same molecule, the “intracellular localization of incorporated rAIM (endosome, lysosome staining)” value ([2]; 3T3-L1 adipocytes, rAIM 3 hr, confocal microscope) was “co-localized with endosome”, the rAIM uptake efficiency ([2]; cells showing low expression of PPARγ2, rAIM 5 μg/ml, 3 hr) was “markedly low” and the “rAIM uptake (cells containing rAIM per 100 cells)” value ([2]; mature adipocytes highly expressing PPARγ2, rAIM 5 μg/ml, 3 hr) was “efficient rAIM uptake”. For the same molecule, the rAIM uptake ([2]; preadipocytes free of differentiation induction stimulation, rAIM 5 μg/ml, 3 hr) was “no rAIM uptake”, the “AIM signal in adipocyte” value [3] was “markedly decreased” and the “increase in body weight” value [4] was “significantly small increase”. The “increase in subcutaneous fat” value [4] was “significantly small increase”, the “increase in visceral fat” value [4] was “significantly small increase” and the “binding of rAIM-HA and endogenous FAS (co-immunoprecipitation, Western blotting)” value [5] was “coprecipitated”. For the same molecule, the “binding of AIM and FAS (co-immunoprecipitation)” value [6] was “coprecipitated”.
